The record followed here is PMC9119168 (Antiviral Research, 2022).

The target of assay [1] is T1, SARS-CoV-2 Mac1 (conserved macrodomain of non-structural protein 3), His-tagged (SARS-CoV-2, UniProt P0DTD1). Description: AlphaScreen or HTRF. (Bead proximity is the source of the signal in Alpha formats.)
The target in assay [2] is T1, SARS-CoV-2 Mac1 (conserved macrodomain …). Description: fluorescence polarisation. Background: Polarisation of emitted light reports the rotation of a fluorescent probe.

Where no end group is shown, it is not given here. Side-chain parts run from the residue outwards. The star is where a group is joined. Biotin = O=C1N[C@H]2[C@H](CS[C@H]2CCCCC(=O)*)N1; Aoa = not defined here

ARTK(Biotin)QTARK([Aoa-ADP‑ribose])S (reading uncertain) [10 amino acid biotinylated and ADP-ribosylated peptide [ARTK(Bio)QTARK (Aoa-RADP)S]]: the binding result in assay [1] is recorded as “binds”.
As to ARTKQTARKS [fluorescein labeled ADP-ribosylated peptide [5 Flu-ARTKQTARK (Aoa-RADP)S]], the binding result in assay [2] was “binds”.
